The nature of the data set: yeast display, Sf9 membrane polyspecificity reagent, FACS + sequencing; frameworks hold sequencing errors. Summed up: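 A nanobody's polyreactivity label depends on the gate it was sorted from. Yeast display cells were stained with 10% biotinylated, detergent-solubilized Sf9 membrane reagent for 1 hour at 4 °C, enriched on streptavidin microbeads and sorted by FACS. The low and high (top ~1%) gates were set on anti-HA fluorescence for expression and streptavidin fluorescence for reagent binding.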
“QVQLVESGGGLVHAGGSLRLSCAASGGIYWYYAMGWYRQAPGKERELVAAISITDGSTYYADSVKGRFTISRDKAKNTVYLQMNSLKPEDTAVYYCAAEEEEYIYDYWGQGTQVTVSS”: the “polyreactivity (PSR sort gate)” value was “high polyreactivity”.

Take “QVQLVESGGGLVHAGGSLRLSCAASGIIFVLHAMGWYRQAPGQERELVASISGIGGSTYYADSEKGRFTISRDNAKNTVYLQMNSLKPEDTAVYYCAARGWLSRYGYWGHGTQVTVSS”: the “polyreactivity (PSR sort gate)” value is “high polyreactivity”.

Consider “QVQLVESGGGLVHAGGSLRLSCAASGIIFYLYAMGWYRQAPGKERELVAAISRRGVSTYYADSVKGRFTISRDNAKNTVYLQMNSLKTEDTAVYYCAAAGFGYTGEEYWGQGTQVTVSS”, for which the “polyreactivity (PSR sort gate)” value is “high polyreactivity”.

With “QVQLVESGGGLVHAGGSLRLSCAASGINFFPYAMGWYRQAPGKERELVASINISDSSTYYADSVKGRFTISRDNAKNTVYLQMNSLKPEDTAVYYCAADNRGDSWYWHGYWGQGTQVSVSS”, the “polyreactivity (PSR sort gate)” value is reported as “low polyreactivity”.

On to “QVQLVESGGGLVHAGGSLRLSCAASGLTFAYNTMGWYRQAPGKEREFVASISSSGGNTYYADSVKGRFTISRDNAKNTVYVQMNSLKPEDTAVYFCAAKKKYHYVASYKRFEYWGQGTQVTVSS”, for which the “polyreactivity (PSR sort gate)” value is listed as “low polyreactivity”.

As to “QVQLVESGGGLVHAGGSLRLSCAASGRIFNYYAMGWYRQAPGKERALVAAISSGGSTYYADSEKGRFTISRDNAKNTVYLQMHSLKPEDTAVDYCNRVPRGVSRQDDYWGQGTQVTVSS”, the “polyreactivity (PSR sort gate)” value is “high polyreactivity”.

On to “QVQLVESGGGLVHAGGSLRLSCAASGRIFPSYAMGWYRQAPGKERELVAAISYSGASTYYADSVKGRFTISRDNAKNTVYLQMNSLKPEDTAVYYCATDHESVRVLVSSTSDYDYWGQGTQVTVSS”, for which the “polyreactivity (PSR sort gate)” value is reported as “low polyreactivity”.

As for “QVQLVESGGGLVHAGGSLRLSCAASGRIFRRYAMGWYRQAPGKERELVASISSGGSTNYADSLKGRFTISRDNAKNTVYLQMNSLNPEDTAVYYCNVYYGYFRSRYCYWGQGTQVTVSS”, the “polyreactivity (PSR sort gate)” value is given as “high polyreactivity”.

With “QVQLVESGGGLVHAGGSLRLSCAASGRIFTIYAMGWYRQAPGKERELVAAISDRGTRTYYADSVKGRFTISRDNAKNTVYLQMNSLKPEETAVYYCATDALYTYGYDYWGQGTQVTVSS”, the “polyreactivity (PSR sort gate)” value is “low polyreactivity”.

Take “QVQLVESGGGLVHAGGSLRLSCAASGRIFYQYAMGWYRQAPGKERELVAAIRYRDDGTYYADSVKGRLTISRDNAKNTVYLQMNSLKPEDTAVYYCAGKQWGRYGYWGQGTQVTVSS”: the “polyreactivity (PSR sort gate)” value is “high polyreactivity”.

Consider “QVQLVESGGGLVHAGGSLRLSCAASGRILVDYAMGWYRQAPGKERELVAAITSTGGTTYYADSVKGRFTISRDNAKNTVYLQMNSLKPEDTAVYYCAAKRQDSWGGTYGYWGQGTQVTVSS”, for which the “polyreactivity (PSR sort gate)” value is “low polyreactivity”.

For the sequence “QVQLVESGGGLVHAGGSLRLSCAASGRISFYYALGWYRQAPGKERALVATISRGDITYYADSVKGRFTISRDNAKNTVYLQLNSLKPEDTAVYYCNARNNYWWYGPGYVYWGQGTQVTVSS”, the “polyreactivity (PSR sort gate)” value is on record as “low polyreactivity”.

As for “QVQLVESGGGLVHAGGSLRLSCAASGRTFASYAIGWYRQAPGKERELVARISKSGGSTYYADSVKGRFTISRDNAKNTVYLQMNSLKPEDTAVYYCAATRYPYLYRSEVGSDYWGQGTQVTVSS”, the “polyreactivity (PSR sort gate)” value was “low polyreactivity”.

For “QVQLVESGGGLVHAGGSLRLSCAASGRTFIRYAMGWYIQAPGKERQLVAAISSSGGSTYYADSVKGRFTISRDNAKNTVYLQMNSLKPEDTAVYYCNAYVYYSHEDDYWGQGTQVTVSS”, the “polyreactivity (PSR sort gate)” value is “high polyreactivity”.

Consider “QVQLVESGGGLVHAGGSLRLSCAASGRTFKYYGMGWYREAPGKERELVATISRSSSRTYYADSVKGRFTISRDNAKNTVYLQMNSLKPEDTAVYYCAADRWGARRKQYDENGYWGQGTQVTVSS”, for which the “polyreactivity (PSR sort gate)” value was “high polyreactivity”.

“QVQLVESGGGLVHAGGSLRLSCAASGRTFNGYVMGWYRQAPGKERELVAAITNRDGSTYYADSVKGRFTISRDNAKNTVYLQMYSLKPEDSAVYYCAAPVWLWADRYDSWGQGTQVTVSS”: the “polyreactivity (PSR sort gate)” value is “low polyreactivity”.

As to “QVQLVESGGGLVHAGGSLRLSCAASGRTFYYNAKGWYRQAPGKESELVAAISSGDSTYYADSVKGRFTISRDNAKNTVSLQLNSLKPEDTAVYYCYADTGLGSLDFDKRDYWGQGTQVTVSS”, the “polyreactivity (PSR sort gate)” value is given as “low polyreactivity”.

Turning to “QVQLVESGGGLVHAGGSLRLSCAASGSIFAANAMGWYRQAPGKERELVAAISSSGDITYYADSVKGRFTISRDNAKNSVFLQMNSLKPEDTAVYYCAARRYPYHEDNYWGQGTQVTVSS”, the “polyreactivity (PSR sort gate)” value was “high polyreactivity”.

“QVQLVESGGGLVHAGGSLRLSCAASGSIFAGNAMGWYRQAPGNERELVAGISRSGGSTNYADSVKGRFTISRDNAKNTVYLQMIRLKPEDTAVYYFAASATPSGVGMDYWGQGTQVNVSS”: the “polyreactivity (PSR sort gate)” value was “low polyreactivity”.

For the sequence “QVQLVESGGGLVHAGGSLRLSCAASGSIFFHNAMGWYRQAPGKERELVAAISGGGSTTYADSVKGRFTISRDNAKNTVYLQMNSLKPEDTAVYYCAKSYRYYALHYSPGWYNYWGQGTQVTVSS”, the “polyreactivity (PSR sort gate)” value is given as “high polyreactivity”.

Consider “QVQLVESGGGLVHAGGSLRLSCAASGSIFLLYAMGWYRQAPGKERELVAAITSSGGSTNYADSVKGRFTISRDNAKNTVYLQMNSLKPEDTAVYYCATAPYAYTILGSRFDYWGQGTQVTVSS”, for which the “polyreactivity (PSR sort gate)” value is “low polyreactivity”.

For “QVQLVESGGGLVHAGGSLRLSCAASGSIFQYNAMGWYRQAPWKERELVAAITSTGDTNYADSVKGRFTISRDNAKNTVYLQMNSLKPEDTAVYYCAADVYGTVRRVGWYYVGEGYDYWGQGTQVTVSS”, the “polyreactivity (PSR sort gate)” value is “low polyreactivity”.

“QVQLVESGGGLVHAGGSLRLSCAASGSIFRVYTMGWYRQAPGKERELVAAISRSGGRTYYADSVKGRFTISRDNAKNTVYLQMNSLKPEDTAVYYCATRPKVAYEYDYWGQGTQVTVSS”: the “polyreactivity (PSR sort gate)” value was “high polyreactivity”.

In the case of “QVQLVESGGGLVHAGGSLRLSCAASGSIFSAYAMGWYRQAPGKERELVAAISRSGGRTYYADSVKGRFTISRDNAKNTVYLQMNSLKPEDTAVYYCAAYFTYYSTLGRWYRYDYWGQGTQVTVSS”, the “polyreactivity (PSR sort gate)” value is “high polyreactivity”.

As for “QVQLVESGGGLVHAGGSLRLSCAASGSIFYRNVMGWYRQAPGKERELVAAISRSGGSTYYADSVKGRFTISRDNAKNTVYLQMNSLKPEDTAVYYCAVRYSPFYYWGQGTQVTVSS”, the “polyreactivity (PSR sort gate)” value is on record as “high polyreactivity”.

As for “QVQLVESGGGLVHAGGSLRLSCAASGSTFGDNAMGWYRQAPGKERELVAAITSGTSTNYADSVKGRFTISRDNAKNTVYLQMNSLKPEDTAVYYCAAQYYGVAKQGLDEEDYWGQGTQVTVSS”, the “polyreactivity (PSR sort gate)” value was “low polyreactivity”.

With “QVQLVESGGGLVHAGGSLRLSCAASGSTFKIYAMGLYRQAPGKERELVASIRGRGGSTYYADSVKGRFTISRDNAKNTVYLQMNSLKPEDTAVYYCNATYGHRYPACISYDYWGQGTQGTVSS”, the “polyreactivity (PSR sort gate)” value is reported as “high polyreactivity”.

Take “QVQLVESGGGLVHAGGSLRLSCAASGSTFPGYAMGWYRQAPGKERELVAAISKRGGSTRYADSVKGRFTISRDNANNTVYLQMNSLKPEDTAVYYCAASYSYSGSGGGYWGQGTQVTVSS”: the “polyreactivity (PSR sort gate)” value is recorded as “high polyreactivity”.

As to “QVQLVESGGGLVHAGGSLRLSCAASGSTFRHNAMGWYRQAPGKERELVAAINRSGVSTHYADSVKGRFTISRDNAKNTVYLQMNSLKPEDTAVYYCAVDSYPKSLWYYGGVYSPLDYWGQGTQVTVSS”, the “polyreactivity (PSR sort gate)” value is given as “low polyreactivity”.

“QVQLVESGGGLVHAGGSLRLSCAASGSTFVEYVMGWYRQAPGKERELVASIDVGTTSTRYADSVKGRFTISRDNAKNTVYLQMNSLKPEDTAVYYCNADGYYSGYWTNYDYWGQGTQVTVSS”: the “polyreactivity (PSR sort gate)” value was “low polyreactivity”.

Consider “QVQLVESGGGLVHAGGSLRLSCAASGSTLGSYAMGWYRQAPGKERELVARITTGGGTSYADSVKGRFTISRDNAKNTVYLQMNSLKPEDTAVYYCAATFIYGARTYGYWGQGTQVTVSS”, for which the “polyreactivity (PSR sort gate)” value is recorded as “high polyreactivity”.

Turning to “QVQLVESGGGLVHAGGSLRLSCADSGRIIGINAMGCYRQAPGKERELVAAINWSGGSTYYADSVKGRFTISRDNAKNTVYLQMNSLKPEDTAVYYCAAQKYKRVGYWGLGTQVTVSS”, the “polyreactivity (PSR sort gate)” value is reported as “high polyreactivity”.

Take “QVQLVESGGGLVHAGGSLRLSCAPSRIFVYNAMGWYRQAPGKERELVATITSSGGITYYADSVKGRFTISRDNAKNTVYLQMNSLKPEDTAVYYCNKVRRYYYRTHNDFWGQGTQVTVSS”: the “polyreactivity (PSR sort gate)” value was “high polyreactivity”.

With “QVQLVESGGGLVHAGGSLRLSCASTGFIYQPYAMGWYRQAPGKEMELVAAITSRGGRTYYADSVKGRFTISRDIANNTVYLQMNRLNPVDTAVYYCNADIYASEYYYWGQGTQVTVSS”, the “polyreactivity (PSR sort gate)” value is given as “low polyreactivity”.

As for “QVQLVESGGGLVHAGGSLRLSCDASGSIFDGYGMGWYRQAPGKERELVASITWNDGSTYYADSVKGRFTISRDNAKNTVYLQMNSLKPEDTAVYYCAADQWGYEYDYWGQGTQVTVSS”, the “polyreactivity (PSR sort gate)” value is given as “low polyreactivity”.

Regarding “QVQLVESGGGLVHAGGSRRLSCAASGNFFRYYVLGWYRQAPGTERECVAAITSSGGSKYYADSVKGRFTISRDNANNTVYLQMNSLKPEDTAVYYCAKDYWDPGWAEYDFWGQGTQVTVSS”, the “polyreactivity (PSR sort gate)” value is recorded as “low polyreactivity”.

Take “QVQLVESGGGLVHAGGTIEPYAMGWYRQAPGKERELVAPIRTSGGGTYYADSVKGRFTISRDNAKNTVYLQMYSLKPEDTAVYYCAAKSGPTLQRYYSYIFDYWGQGTQVTVSS”: the “polyreactivity (PSR sort gate)” value was “low polyreactivity”.

Regarding “QVQLVESGGGLVHAGVSLRISCAASGRIFKQYAMGWYRQAPGNERELVAAISVRGGITYYADSVKGRFTISRYHAKNTVYLQMKSLNPEDTAVYYCAKRSYRNHTYDYWGQGTQVTVSS”, the “polyreactivity (PSR sort gate)” value is recorded as “low polyreactivity”.

With “QVQLVESGGGLVHGGGSLSLSFDASGSIFRVYPMGWYSPAPGKERELVAAIDSGPSTTYADCVTGRFTISRDNAKNTVYLLMNRLKPVDTEVYCFAADGWLWSFTGDGWWFDYWGQGTQVSVSS”, the “polyreactivity (PSR sort gate)” value is on record as “low polyreactivity”.

With “QVQLVESGGGLVHSGGSLRLSCAASGRIFLPYGMGWYRKAPGKERELVATITIGGSTTYADSVKGRFTISRDNAKNTVYLLMNSLKPEDTAVYYCAVLRWVYYLHGYDYWGHGTQVTVSS”, the “polyreactivity (PSR sort gate)” value was “low polyreactivity”.

In the case of “QVQLVESGGGLVKAGAILRLSCPASGSTFQSYAKGWSRQEPGKESELVAAISSGGITYYADSVKGRFTISRDNAKNTVYFQMNSLKPEDTAVYYCAKVPTYLISNRYSRYDYWGQGTQVTVSS”, the “polyreactivity (PSR sort gate)” value was “low polyreactivity”.

These data come from the nanobody polyreactivity screen of Harvey et al. (2022).
